Test results reported in IntAct's records for PubMed 12117771.

B1: Cadherin-related family member 2 (Homo sapiens), Q9BYE9 (parent)
chain: MAQLWLSCFLLPALVVSVAANVAPKFLANMTSVILPEDLPVGAQAFWLVAEDQDNDPLTYGMSGPNAYFFAVTPKTGEVKLASALDYETLYTFKVTISVSDPYIQVQREMLVIVEDRNDNAPVFQNTAFSTSINETLPVGSVVFSVLAVDKDMGSAGMVVYSIEKVIPSTGDSEHLFRILANGSIVLNGSLSYNNKSAFYQLELKACDLGGMYHNTFTIQCSLPVFLSISVVDQPDLDPQFVREFYSASVAEDAAKGTSVLTVEAVDGDKGINDPVIYSISYSTRPGWFDIGADGVIRVNGSLDREQLLEADEEVQLQVTATETHLNIYGQEAKVSIWVTVRVMDVNDHKPEFYNCSLPACTFTPEEAQVNFTGYVDEHASPRIPIDDLTMVVYDPDKGSNGTFLLSLGGPDAEAFSVSPERAVGSASVQVLVRVSALVDYERQTAMAVQVVATDSVSQNFSVAMVTIHLRDINDHRPTFPQSLYVLTVPEHSATGSVVTDSIHATDPDTGAWGQITYSLLPGNGADLFQVDPVSGTVTVRNGELLDRESQAVYYLTLQATDGGNLSSSTTLQIHLLDINDNAPVVSGSYNIFVQEEEGNVSVTIQAHDNDEPGTNNSRLLFNLLPGPYSHNFSLDPDTGLLRNLGPLDREAIDPALEGRIVLTVLVSDCGEPVLGTKVNVTITVEDINDNLPIFNQSSYNFTVKEEDPGVLVGVVKAWDADQTEANNRISFSLSGSGANYFMIRGLVLGAGWAEGYLRLPPDVSLDYETQPVFNLTVSAENPDPQGGETIVDVCVNVKDVNDNPPTLDVASLRGIRVAENGSQHGQVAVVVASDVDTSAQLEIQLVNILCTKAGVDVGSLCWGWFSVAANGSVYINQSKAIDYEACDLVTLVVRACDLATDPGFQAYSNNGSLLITIEDVNDNAPYFLPENKTFVIIPELVLPNREVASVRARDDDSGNNGVILFSILRVDFISKDGATIPFQGVFSIFTSSEADVFAGSIQPVTSLDSTLQGTYQVTVQARDRPSLGPFLEATTTLNLFTVDQSYRSRLQFSTPKEEVGANRQAINAALTQATRTTVYIVDIQDIDSAARARPHSYLDAYFVFPNGSALTLDELSVMIRNDQDSLTQLLQLGLVVLGSQESQESDLSKQLISVIIGLGVALLLVLVIMTMAFVCVRKSYNRKLQAMKAAKEARKTAAGVMPSAPAIPGTNMYNTERANPMLNLPNKDLGLEYLSPSNDLDSVSVNSLDDNSVDVDKNSQEIKEHRPPHTPPEPDPEPLSVVLLGRQAGASGQLEGPSYTNAGLDTTDL

Variants of: B1
Details: with mast2_human MAST2, Q6P0Q8
Sequence of mast2_human MAST2, Q6P0Q8 (Q6P0Q8 whole entry): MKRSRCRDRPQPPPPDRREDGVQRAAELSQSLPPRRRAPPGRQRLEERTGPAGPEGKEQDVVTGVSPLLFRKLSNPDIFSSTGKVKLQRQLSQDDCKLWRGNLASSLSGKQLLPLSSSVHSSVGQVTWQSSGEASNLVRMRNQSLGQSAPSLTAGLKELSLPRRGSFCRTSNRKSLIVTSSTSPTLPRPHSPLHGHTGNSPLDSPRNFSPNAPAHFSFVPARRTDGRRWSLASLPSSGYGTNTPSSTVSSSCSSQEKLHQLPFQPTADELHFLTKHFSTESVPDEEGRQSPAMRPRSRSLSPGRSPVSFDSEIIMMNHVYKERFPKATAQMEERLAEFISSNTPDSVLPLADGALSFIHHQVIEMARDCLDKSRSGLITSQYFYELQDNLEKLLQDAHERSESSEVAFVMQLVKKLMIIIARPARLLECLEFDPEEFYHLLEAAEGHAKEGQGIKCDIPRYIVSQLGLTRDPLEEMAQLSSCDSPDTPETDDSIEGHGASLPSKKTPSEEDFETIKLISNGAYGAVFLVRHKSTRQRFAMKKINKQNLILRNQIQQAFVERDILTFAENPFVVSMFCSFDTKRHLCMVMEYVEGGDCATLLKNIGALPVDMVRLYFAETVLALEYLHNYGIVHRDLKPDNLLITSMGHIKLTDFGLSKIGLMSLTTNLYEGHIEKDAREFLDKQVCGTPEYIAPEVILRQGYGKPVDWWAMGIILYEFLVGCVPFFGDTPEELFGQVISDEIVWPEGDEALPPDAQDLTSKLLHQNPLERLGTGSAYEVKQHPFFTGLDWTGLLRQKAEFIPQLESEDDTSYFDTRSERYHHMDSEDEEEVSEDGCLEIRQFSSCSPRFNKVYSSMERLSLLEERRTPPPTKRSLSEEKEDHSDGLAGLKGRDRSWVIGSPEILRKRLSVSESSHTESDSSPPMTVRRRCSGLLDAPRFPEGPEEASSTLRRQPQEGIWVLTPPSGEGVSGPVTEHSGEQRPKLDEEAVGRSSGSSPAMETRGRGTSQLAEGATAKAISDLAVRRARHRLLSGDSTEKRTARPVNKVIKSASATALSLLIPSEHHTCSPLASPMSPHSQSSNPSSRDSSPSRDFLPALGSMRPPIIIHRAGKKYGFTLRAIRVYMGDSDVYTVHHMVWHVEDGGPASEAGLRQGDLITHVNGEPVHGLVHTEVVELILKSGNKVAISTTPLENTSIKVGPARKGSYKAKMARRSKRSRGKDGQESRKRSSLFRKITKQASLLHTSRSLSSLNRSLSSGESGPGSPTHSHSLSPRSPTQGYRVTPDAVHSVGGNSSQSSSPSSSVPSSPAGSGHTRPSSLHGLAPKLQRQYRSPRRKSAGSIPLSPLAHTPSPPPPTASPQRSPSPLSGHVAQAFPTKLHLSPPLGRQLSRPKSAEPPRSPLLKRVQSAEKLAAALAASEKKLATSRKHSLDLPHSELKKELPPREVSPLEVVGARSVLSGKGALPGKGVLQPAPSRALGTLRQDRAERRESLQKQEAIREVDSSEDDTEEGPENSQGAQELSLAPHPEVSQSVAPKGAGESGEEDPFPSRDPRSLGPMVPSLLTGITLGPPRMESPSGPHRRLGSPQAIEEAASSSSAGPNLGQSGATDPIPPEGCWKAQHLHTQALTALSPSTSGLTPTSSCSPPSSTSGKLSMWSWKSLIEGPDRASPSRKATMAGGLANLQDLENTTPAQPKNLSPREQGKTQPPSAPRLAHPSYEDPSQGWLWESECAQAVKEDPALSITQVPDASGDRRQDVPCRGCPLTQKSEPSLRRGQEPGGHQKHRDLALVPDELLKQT

Row | Variant | effect of a mutation on the interaction
1 | L1310R | decreasing interaction
